According to patent publication US20170158755A1 (PROTHENA BIOSCIENCES, published 2017):

T1: LGde3, human LAMA4 G domain with LG3 deleted, displayed on 293 cells (human, UniProt Q16363 830-1821, limits assumed)
T1 construct: pDisplay construct on 293 cells; vector tags and anchor not written here; also called LGde3 (LG12); LGde3 (LG23)
T1 sequence: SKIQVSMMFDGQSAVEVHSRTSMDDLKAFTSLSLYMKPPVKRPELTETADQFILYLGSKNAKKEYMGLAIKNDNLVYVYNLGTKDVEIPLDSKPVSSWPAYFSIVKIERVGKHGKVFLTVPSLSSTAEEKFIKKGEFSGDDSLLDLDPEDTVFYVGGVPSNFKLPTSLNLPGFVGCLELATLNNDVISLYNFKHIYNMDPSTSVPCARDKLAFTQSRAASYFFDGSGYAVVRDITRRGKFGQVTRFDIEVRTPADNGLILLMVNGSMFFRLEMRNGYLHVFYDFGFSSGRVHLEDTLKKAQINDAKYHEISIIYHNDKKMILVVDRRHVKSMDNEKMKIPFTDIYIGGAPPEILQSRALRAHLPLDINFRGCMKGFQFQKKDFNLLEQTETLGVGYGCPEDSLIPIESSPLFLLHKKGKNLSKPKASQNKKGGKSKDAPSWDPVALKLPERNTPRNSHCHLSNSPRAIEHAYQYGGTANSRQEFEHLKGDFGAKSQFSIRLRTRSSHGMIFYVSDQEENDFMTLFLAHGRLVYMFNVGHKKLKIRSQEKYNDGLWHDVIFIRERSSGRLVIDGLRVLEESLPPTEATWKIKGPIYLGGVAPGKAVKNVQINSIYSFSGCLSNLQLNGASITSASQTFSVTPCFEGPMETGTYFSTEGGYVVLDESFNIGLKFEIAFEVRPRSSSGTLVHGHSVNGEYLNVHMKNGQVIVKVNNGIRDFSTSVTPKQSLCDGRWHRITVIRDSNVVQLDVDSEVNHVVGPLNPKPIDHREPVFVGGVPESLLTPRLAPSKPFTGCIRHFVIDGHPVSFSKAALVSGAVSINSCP

T2: mouse His-laminin-α4 (mouse, UniProt P97927 826-1816, limits assumed)
T2 construct: Bought His-tagged recombinant protein; also called Murine LAMA4; recombinant mouse LAMA4-His
T2 sequence (looked up): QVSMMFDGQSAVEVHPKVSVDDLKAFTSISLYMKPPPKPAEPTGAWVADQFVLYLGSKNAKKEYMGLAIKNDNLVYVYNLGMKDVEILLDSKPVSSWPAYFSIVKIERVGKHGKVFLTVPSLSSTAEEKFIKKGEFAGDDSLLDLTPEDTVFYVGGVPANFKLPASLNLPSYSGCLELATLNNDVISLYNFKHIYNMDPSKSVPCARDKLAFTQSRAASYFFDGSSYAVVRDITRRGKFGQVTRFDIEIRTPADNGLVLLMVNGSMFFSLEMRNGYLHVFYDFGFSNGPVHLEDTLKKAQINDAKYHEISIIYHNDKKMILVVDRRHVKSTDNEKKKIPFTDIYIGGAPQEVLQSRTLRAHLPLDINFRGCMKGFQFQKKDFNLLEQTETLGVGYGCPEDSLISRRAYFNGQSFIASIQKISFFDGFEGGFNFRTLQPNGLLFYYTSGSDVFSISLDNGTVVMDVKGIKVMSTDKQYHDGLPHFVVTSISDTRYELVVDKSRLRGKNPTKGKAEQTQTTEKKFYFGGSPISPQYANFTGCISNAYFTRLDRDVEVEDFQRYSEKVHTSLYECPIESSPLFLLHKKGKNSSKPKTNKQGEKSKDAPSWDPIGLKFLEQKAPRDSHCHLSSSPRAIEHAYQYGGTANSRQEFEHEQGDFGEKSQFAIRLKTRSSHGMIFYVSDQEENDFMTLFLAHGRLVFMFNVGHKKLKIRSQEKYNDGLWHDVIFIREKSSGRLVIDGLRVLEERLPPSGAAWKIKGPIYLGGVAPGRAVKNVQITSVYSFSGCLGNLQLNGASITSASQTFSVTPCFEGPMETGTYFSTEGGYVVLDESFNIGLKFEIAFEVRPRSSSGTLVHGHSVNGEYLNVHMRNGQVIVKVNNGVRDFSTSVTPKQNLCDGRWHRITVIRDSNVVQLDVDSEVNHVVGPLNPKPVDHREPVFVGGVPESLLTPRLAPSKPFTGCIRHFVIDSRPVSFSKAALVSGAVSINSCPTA


Tests used:
[1] = biological target: T1, LGde3, human LAMA4 G domain with LG3 …; assay: flow cytometry, 650-labeled MCAM-Fc on 293 cells displaying the variant
Excerpt: LGde1 has a full-length G domain (i.e., LG1-5) with LG1 deleted, LGde2 has a full-length G domain with LG2 deleted, and LGde3 has a full-length G domain with LG3 deleted. Recombinant MCAM-Fc protein was able to specifically bind 293 cells expressing LAMA4 variants LG1-5, LG1-3, and LGde 1 (LG23), but not 293 cells expressing LAMA 4 variants LG4-5, LGde2 (LG13), or LGde3 (LG12).

recombinant laminin 411 [2] = biological target: T3, recombinant laminin 411 (human, UniProt P07942 22-1786; P11047 34-1609, limits assumed); assay: hMCAM.CHO flow cytometric blocking assay; antibody pre-incubated with laminin 411; blocked partner: human MCAM on CHO cells
T3 construct: also called LAMA4 in complex with its gamma1 and beta1 chains
T3 sequence (chain, as listed by the source limits assumed, chain 1 of 3): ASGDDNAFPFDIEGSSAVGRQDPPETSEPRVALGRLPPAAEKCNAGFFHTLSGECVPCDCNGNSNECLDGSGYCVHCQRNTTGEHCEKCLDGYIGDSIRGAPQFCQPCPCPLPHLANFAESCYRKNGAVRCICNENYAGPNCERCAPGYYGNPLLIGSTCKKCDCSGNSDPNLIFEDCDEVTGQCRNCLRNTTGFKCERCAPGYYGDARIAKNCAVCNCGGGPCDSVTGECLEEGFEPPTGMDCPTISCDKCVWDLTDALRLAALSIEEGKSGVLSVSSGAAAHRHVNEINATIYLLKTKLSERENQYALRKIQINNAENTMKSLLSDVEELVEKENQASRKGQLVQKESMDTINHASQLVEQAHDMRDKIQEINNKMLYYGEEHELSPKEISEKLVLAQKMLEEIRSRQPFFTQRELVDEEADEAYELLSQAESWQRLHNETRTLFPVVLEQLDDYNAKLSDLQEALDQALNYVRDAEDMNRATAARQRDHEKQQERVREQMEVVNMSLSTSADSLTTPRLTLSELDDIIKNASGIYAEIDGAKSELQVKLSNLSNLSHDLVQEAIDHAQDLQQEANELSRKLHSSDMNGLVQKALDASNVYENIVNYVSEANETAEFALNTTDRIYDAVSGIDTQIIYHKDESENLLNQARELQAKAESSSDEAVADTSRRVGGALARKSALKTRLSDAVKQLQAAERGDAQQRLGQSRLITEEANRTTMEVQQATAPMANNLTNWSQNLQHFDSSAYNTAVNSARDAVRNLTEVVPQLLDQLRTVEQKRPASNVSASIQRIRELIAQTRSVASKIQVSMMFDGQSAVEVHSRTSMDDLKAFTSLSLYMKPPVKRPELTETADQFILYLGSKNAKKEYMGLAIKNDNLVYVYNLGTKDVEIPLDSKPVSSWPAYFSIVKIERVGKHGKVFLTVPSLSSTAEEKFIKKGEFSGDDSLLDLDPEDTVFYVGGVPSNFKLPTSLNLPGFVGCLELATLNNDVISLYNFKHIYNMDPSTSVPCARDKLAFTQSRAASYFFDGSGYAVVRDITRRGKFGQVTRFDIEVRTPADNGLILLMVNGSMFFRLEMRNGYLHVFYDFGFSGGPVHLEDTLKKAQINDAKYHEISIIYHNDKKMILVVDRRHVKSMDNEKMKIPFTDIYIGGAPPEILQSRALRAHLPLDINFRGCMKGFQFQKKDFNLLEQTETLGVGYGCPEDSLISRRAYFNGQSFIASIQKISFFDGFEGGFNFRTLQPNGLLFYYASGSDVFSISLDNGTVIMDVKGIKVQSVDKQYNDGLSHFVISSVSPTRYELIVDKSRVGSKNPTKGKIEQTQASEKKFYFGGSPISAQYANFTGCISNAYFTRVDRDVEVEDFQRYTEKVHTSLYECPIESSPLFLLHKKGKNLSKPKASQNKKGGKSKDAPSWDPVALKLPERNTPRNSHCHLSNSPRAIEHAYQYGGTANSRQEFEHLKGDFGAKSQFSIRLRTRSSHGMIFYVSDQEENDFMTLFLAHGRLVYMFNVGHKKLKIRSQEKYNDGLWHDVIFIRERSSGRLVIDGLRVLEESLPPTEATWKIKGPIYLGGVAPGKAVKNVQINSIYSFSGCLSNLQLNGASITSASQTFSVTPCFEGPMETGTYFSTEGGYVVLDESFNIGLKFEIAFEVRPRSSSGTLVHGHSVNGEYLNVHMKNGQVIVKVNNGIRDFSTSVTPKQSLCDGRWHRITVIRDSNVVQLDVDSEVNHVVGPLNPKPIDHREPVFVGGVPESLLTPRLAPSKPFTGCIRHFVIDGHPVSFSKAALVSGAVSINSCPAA
T3 sequence (P07942 22-1786 limits assumed, chain 2 of 3): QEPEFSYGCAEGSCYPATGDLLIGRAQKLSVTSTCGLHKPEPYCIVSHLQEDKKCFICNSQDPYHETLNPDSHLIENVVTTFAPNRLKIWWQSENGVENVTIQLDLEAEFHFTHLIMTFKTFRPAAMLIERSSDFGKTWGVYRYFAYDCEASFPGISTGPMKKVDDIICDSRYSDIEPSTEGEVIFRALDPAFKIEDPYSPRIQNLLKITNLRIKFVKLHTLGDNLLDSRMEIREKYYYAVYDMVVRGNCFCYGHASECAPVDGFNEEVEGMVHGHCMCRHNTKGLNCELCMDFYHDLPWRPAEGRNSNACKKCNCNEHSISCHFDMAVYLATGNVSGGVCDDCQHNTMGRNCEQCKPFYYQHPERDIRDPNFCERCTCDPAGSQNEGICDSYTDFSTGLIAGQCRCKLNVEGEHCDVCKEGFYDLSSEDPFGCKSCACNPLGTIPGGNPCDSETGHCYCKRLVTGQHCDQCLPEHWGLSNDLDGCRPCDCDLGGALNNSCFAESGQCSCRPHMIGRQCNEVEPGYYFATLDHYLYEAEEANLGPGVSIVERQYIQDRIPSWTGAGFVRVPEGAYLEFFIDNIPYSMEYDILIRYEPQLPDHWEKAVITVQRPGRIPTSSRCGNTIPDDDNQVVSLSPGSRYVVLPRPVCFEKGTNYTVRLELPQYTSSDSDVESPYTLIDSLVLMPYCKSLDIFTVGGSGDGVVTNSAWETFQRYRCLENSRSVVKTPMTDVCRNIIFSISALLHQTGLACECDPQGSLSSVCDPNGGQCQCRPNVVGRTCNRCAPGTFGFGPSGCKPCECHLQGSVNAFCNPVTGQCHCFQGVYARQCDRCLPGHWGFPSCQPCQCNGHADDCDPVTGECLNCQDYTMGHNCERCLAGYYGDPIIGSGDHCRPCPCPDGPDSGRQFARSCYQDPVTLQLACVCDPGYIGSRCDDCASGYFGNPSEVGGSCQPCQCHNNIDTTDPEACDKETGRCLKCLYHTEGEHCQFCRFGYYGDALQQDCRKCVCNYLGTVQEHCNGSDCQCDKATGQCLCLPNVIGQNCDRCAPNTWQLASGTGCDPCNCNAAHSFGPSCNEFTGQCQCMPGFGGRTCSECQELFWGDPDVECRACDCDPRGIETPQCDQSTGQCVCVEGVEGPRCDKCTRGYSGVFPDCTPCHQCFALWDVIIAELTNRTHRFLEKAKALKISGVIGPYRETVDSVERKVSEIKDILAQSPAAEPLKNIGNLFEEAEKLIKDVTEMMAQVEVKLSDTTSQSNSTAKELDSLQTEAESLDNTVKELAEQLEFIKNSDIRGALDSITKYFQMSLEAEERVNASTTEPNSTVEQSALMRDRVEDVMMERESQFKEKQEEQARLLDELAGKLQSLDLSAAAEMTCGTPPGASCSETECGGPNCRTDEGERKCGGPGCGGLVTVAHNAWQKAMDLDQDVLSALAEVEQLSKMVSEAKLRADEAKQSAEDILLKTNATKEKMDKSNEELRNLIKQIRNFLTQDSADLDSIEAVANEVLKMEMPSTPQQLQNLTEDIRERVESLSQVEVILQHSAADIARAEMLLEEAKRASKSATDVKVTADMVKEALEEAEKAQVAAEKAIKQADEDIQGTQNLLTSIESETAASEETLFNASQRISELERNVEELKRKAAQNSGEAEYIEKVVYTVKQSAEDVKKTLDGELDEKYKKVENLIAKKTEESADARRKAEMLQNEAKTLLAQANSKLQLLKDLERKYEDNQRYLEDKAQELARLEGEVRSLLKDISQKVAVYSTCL
T3 sequence (P11047 34-1609 limits assumed, chain 3 of 3): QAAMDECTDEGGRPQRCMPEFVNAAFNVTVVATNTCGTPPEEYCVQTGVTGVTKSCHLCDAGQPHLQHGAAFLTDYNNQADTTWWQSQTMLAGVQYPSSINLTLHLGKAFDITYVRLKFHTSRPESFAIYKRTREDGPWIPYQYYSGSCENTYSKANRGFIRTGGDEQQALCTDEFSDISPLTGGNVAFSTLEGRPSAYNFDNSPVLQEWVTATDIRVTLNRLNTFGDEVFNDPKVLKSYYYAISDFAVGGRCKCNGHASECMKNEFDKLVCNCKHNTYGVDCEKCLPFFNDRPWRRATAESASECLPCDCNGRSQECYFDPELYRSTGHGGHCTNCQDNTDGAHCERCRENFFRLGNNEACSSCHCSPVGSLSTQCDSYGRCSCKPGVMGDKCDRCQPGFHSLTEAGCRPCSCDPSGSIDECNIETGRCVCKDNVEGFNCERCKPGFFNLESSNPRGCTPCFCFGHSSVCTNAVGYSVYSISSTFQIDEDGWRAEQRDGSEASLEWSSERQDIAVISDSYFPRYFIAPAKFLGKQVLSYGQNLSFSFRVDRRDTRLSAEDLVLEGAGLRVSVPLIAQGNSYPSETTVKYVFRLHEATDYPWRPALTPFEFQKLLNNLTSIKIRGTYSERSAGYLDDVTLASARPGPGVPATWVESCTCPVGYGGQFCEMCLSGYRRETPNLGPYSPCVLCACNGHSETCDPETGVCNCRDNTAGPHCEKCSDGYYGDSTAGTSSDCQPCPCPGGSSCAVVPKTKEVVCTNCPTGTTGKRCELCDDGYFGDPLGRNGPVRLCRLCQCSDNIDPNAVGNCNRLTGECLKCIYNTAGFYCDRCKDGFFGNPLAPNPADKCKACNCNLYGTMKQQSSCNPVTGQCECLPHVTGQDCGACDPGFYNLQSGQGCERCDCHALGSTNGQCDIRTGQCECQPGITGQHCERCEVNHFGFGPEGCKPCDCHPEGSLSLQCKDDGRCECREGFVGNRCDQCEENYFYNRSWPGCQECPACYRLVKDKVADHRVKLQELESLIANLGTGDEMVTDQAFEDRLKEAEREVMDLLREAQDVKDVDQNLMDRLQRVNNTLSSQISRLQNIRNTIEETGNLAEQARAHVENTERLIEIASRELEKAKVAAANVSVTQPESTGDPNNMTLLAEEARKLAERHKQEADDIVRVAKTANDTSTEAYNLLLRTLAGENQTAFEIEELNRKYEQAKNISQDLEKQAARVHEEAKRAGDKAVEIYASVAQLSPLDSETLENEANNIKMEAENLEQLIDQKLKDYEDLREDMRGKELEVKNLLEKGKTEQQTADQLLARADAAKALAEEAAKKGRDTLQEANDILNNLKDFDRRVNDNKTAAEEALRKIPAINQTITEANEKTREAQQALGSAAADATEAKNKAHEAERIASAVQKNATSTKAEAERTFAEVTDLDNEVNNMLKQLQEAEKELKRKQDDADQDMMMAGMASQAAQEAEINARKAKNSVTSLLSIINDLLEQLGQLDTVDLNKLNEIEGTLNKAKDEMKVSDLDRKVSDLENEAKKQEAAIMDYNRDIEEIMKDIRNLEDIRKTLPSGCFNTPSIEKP
Description: The monoclonal antibodies against LAMA4 were tested for their ability to block the binding of LAMA4 to its ligand MCAM. IgG control antibody, 1C1, 5Al2, 5B5, 19C12, and 12D3 were pre-incubated with recombinant LAMA4 protein, LAMA4-positive healthy mouse brain tissue, or LAMA4-displaying human 293 cells. […] For the mouse brain tissue blocking assay, antibodies were used at concentrations of 2.5 ug/ml or 0.04 ug/ml.
Following two washes with FACS buffer (1% FBS in PBS), cells were resuspended with 650-conjugated anti-pan-laminin antibody (1:1000; Novus Biologicals) and incubated for 20 min at 4° C., and washed again. Cells were analyzed for pan-laminin reactivity by flow cytometry using standard procedures.

recombinant laminin 411 [3] = biological target: T3, recombinant laminin 411; assay: cell-based or functional assay
mouse His-laminin-α4 = biological target: T2, mouse His-laminin-α4; assay: ELISA hMCAM-Fc capture blocking assay; antibody pre-incubated with mouse LAMA4-His; blocked partner: captured hMCAM-Fc

| binding result [1] | IC50 (read off the curve) (recombinant laminin 411 [2]) [µg/mL] | laminin-411-induced pAkt activation (pAkt/Akt ratio by immunoblot) in WM266.4 cells, 20 ug/ml antibody (recombinant laminin 411 [3]) [% inhibition] | IC50 (read off the curve) (mouse His-laminin-α4) [µg/mL] | Binder |
| --- | --- | --- | --- | --- |
| no binding |  |  |  | mouse MCAM-Fc fusion protein (Fc fusion, UniProt Q8R2Y2 24-563, looked up, extracellular domain; Made in house; also called mMCAM-Fc; 650-conjugated mouse MCAM-Fc; not shown: human IgG1 (Fc part of the fusion)) VPGEEKQPVPTPDLVEAEVGSTALLKCGPSRASGNFSQVDWFLIHKERQILIFRVHQGKGQREPGEYEHRLSLQDSVATLALSHVTPHDERMFLCKSKRPRLQDHYVELQVFKAPEEPTIQANVVGIHVDRQELREVATCVGRNGYPIPQVLWYKNSLPLQEEENRVHIQSSQIVESSGLYTLKSVLSARLVKEDKDAQFYCELSYRLPSGNHMKESKEVTVPVFYPAEKVWVEVEPVGLLKEGDHVTIRCLTDGNPQPHFTINKKDPSTGEMEEESTDENGLLSLEPAEKHHSGLYQCQSLDLETTITLSSDPLELLVNYVSDVQVNPTAPEVQEGESLTLTCEAESNQDLEFEWLRDKTGQLLGKGPVLQLNNVRREAGGRYLCMASVPRVPGLNRTQLVSVGIFGSPWMALKERKVWVQENAVLNLSCEASGHPQPTISWNVNGSATEWNPDPQTVVSTLNVLVTPELLETGAECTASNSLGSNTTTIVLKLVTLTTLIPDSSQTTGLSTLTVSPHTRANSTSTEKKLPQPESKGVV |
|  | ~0.03 | ~50 | ~0.1 | mouse monoclonal antibody 19C12 (antibody, V domains shown, Mouse hybridoma antibody; Mouse IgG2b was used as its isotype control; also called m19C12) VH: QVQLQQSGAELVKPGASVKISCKASGYAFSTYWMNWVKQRPGEGLEWIGQIYPGDGDTNYNGKFKGKATLTADKSSSTAYMQLSSLTSEDSAVYFCARSDGYYDYWGQGTTLTVSS VL: NIVLTQSPASLAVSLGQRATISCRASESVDSYGTSFMHWYQQKPGQPPKLLICLASSLESGVPARFSGSGSRTDFTLTIDPVEADDAATYYCQQNNEDPPTFGAGTKLELKR |
